One protein from PMC5291488, “3,4-Dihydroxyphenylacetate 2,3-dioxygenase from Pseudomonas aeruginosa: An Fe(II)-containing enzyme with fast turnover” (PLoS ONE, 2017) can be followed below.

Substrate in the series: O=C(O)Cc1ccc(O)c(O)c1
Briefly: purified protein. Conditions: air-saturated (O2 ~260 μM), 50 mM sodium phosphate pH 7.5, 25 °C, Fe(II)/DTT-activated enzyme, stock kept with 0.5 mM ascorbic acid as preservative. It is filed as biochemical, Pseudomonas aeruginosa.

B1: PaDHPAO (3,4-dihydroxyphenylacetate 2,3-dioxygenase) (Pseudomonas aeruginosa PAO1) (protein)
chain: MGKVALAAKITHVPSLYLSELPGPRHGCRQPAIDGHREIGRRCRELGVDTIVVFDTHWLVNAGYHINCAPHFEGLYTSNELPHFIANMEYGFPGNPELGRILAEGCNALGVETLAHDATTLGPEYGTLVPMRYMNQDRHFKVVSVSALCTVHYLNDSARLGWAMRKAVEEHYDGTVAFLASGSLSHRFAQNGQAPDFSDRIWSPFLEVLDHEVVQMWQEGRWAEFCGMLPEYASKGHGEGFMHDTAMLLGALGWSAYDGKAEVVTPYFGSSGTGQINAVFPVTAQDGSAIPAAQAGNPAGASCASRL
notes: N-terminus MGKVA from primer
By Km is commonly meant the substrate concentration at which the rate is half of its maximum. The term kcat denotes the number of substrate molecules converted per active site and unit of time at saturation. In general, kcat/Km refers to the second-order rate constant that governs catalysis at low substrate concentration. Consider B1, for which the Km is 58 ± 8 µM, the kcat is 63.5 s⁻¹ and the kcat/Km is 1.1e+06 M⁻¹ s⁻¹.
